Experimental findings from PMC11538695 (Advanced Science, 2024) are described below.

Holding throughout (conditions): both partners purified
Test [1] addresses T1, N-terminal region of VCPIP1 (residues 40-464) (human, UniProt Q96JH7 40-464).
T1 construct: VCPIP1, human, N-terminal region with the OTU domain, residues 40-464; also called N-terminal OTU domain (residues 40-464); source: E. coli BL21 (DE3) (said of the recombinant proteins in general), purified
T1 sequence (looked up): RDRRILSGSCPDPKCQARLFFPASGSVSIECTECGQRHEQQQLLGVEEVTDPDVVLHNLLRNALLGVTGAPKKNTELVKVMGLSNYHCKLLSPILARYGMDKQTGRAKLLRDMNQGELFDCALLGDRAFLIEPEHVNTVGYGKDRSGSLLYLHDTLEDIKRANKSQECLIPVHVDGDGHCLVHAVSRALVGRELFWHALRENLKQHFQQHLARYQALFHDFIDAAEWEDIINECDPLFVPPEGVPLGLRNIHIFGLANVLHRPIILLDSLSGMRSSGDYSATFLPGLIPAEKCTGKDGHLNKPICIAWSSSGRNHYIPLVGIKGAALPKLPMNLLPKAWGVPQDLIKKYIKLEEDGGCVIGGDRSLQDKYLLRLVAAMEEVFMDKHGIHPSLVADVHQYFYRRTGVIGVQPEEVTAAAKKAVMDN
Description: SEC; gel filtration co-migration of purified fragments, fractions on SDS-PAGE with Coomassie staining.

Test [2] has as its target T2, full-length human P97/VCP (Valosin-Containing Protein) (human, UniProt P55072 1-806).
T2 construct: P97/VCP (valosin-containing protein), human, full length; Cloned into pRSF-32 M (N-terminal thioredoxin and 6xHis) or pET-28a; source: E. coli BL21 (DE3), purified (Ni-NTA, size exclusion chromatography)
Description: pull-down; 50 µg GST-tagged VCPIP1 protein held on glutathione Sepharose 4B, full-length P97/VCP at molar ratio 1:3; 20 mM Tris pH 7.5, 100 mM NaCl, 1 mM DTT; Coomassie staining.

Test [3] deals with T2, full-length human P97/VCP …. Description: pull-down; MBP pull-down, SNARE complex held by MBP-syntaxin5; P97/VCP-P47 without or with VCPIP1 WT or Y623E/F638E added (VCPIP1 WT enhanced, the double mutant did not).
Test [4] concerns the target T3, Syntaxin5 (STX5) contained SNARE complex (syntaxin-5, GOSR1, Ykt6, Bet1, without transmembrane domains) (human, UniProt Q13190 55-330; O95249 150-230; O15498 1-193; O15155 1-93).
T3 construct: syntaxin-5, human, residues 55-330; GosR1, human, residues 150-230; Ykt6, human, residues 1-193; Bet1, human, residues 1-93; also called intact SNARE complex; SNARE substrate; source: E. coli BL21 (DE3), pellets mixed and lysed together, purified (amylose resin, size exclusion chromatography); not shown: MBP, N-terminal, kept; copies: + + +
T3 sequence (looked up) 1: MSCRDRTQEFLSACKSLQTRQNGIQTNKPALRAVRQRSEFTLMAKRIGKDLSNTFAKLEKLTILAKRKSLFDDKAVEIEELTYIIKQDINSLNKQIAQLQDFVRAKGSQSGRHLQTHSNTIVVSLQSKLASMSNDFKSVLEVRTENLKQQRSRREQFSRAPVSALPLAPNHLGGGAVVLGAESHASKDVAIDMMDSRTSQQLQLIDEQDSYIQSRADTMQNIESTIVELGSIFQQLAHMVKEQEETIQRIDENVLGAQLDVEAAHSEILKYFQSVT
T3 sequence (looked up) 2: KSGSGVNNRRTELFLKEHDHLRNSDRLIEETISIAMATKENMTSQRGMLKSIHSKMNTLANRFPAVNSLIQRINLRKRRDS
T3 sequence (looked up) 3: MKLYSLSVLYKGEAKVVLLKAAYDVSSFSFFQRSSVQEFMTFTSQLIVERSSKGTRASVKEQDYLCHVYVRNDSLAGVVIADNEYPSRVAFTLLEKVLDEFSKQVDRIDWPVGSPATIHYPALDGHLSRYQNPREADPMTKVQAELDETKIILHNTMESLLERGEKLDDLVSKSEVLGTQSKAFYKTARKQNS
T3 sequence (looked up) 4: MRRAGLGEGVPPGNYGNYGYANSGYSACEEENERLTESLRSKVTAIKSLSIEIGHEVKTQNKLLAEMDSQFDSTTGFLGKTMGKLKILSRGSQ
The test is described as above.

B1: C-terminal tail of P97/VCP (residues 765-806) (domain or fragment, human, UniProt P55072 765-806, looked up)
chain: SRGFGSFRFPSGNQGGAGPSQGSGGGTGGSVYTEDNDDDLYG
notes: P97/VCP, human, C-terminal tail, residues 765-806; also called P97/VCP tail; source: E. coli BL21 (DE3) (said of the recombinant proteins in general), purified
As to B1, the binding result in test [1] is given as “binds”.

B2: GST-VCPIP1 F1 fragment (IDR1-OTU) (domain or fragment, human, UniProt Q96JH7 1-464, looked up)
chain: MSQPPPPPPPLPPPPPPPEAPQTPSSLASAAASGGLLKRRDRRILSGSCPDPKCQARLFFPASGSVSIECTECGQRHEQQQLLGVEEVTDPDVVLHNLLRNALLGVTGAPKKNTELVKVMGLSNYHCKLLSPILARYGMDKQTGRAKLLRDMNQGELFDCALLGDRAFLIEPEHVNTVGYGKDRSGSLLYLHDTLEDIKRANKSQECLIPVHVDGDGHCLVHAVSRALVGRELFWHALRENLKQHFQQHLARYQALFHDFIDAAEWEDIINECDPLFVPPEGVPLGLRNIHIFGLANVLHRPIILLDSLSGMRSSGDYSATFLPGLIPAEKCTGKDGHLNKPICIAWSSSGRNHYIPLVGIKGAALPKLPMNLLPKAWGVPQDLIKKYIKLEEDGGCVIGGDRSLQDKYLLRLVAAMEEVFMDKHGIHPSLVADVHQYFYRRTGVIGVQPEEVTAAAKKAVMDN
notes: VCPIP1, human, residues 1-464 (methods); the results print 1-465; pGEX-6P-1 vector; source: E. coli BL21 (DE3), purified (glutathione Sepharose 4B, size exclusion chromatography); not shown: GST, N-terminal, kept
As to B2, the binding result in test [2] is given as “binds”.

B3: full-length human P47 (natural protein, UniProt Q9UNZ2 1-370, looked up)
chain: MAAERQEALREFVAVTGAEEDRARFFLESAGWDLQIALASFYEDGGDEDIVTISQATPSSVSRGTAPSDNRVTSFRDLIHDQDEDEEEEEGQRFYAGGSERSGQQIVGPPRKKSPNELVDDLFKGAKEHGAVAVERVTKSPGETSKPRPFAGGGYRLGAAPEEESAYVAGEKRQHSSQDVHVVLKLWKSGFSLDNGELRSYQDPSNAQFLESIRRGEVPAELRRLAHGGQVNLDMEDHRDEDFVKPKGAFKAFTGEGQKLGSTAPQVLSTSSPAQQAENEAKASSSILIDESEPTTNIQIRLADGGRLVQKFNHSHRISDIRLFIVDARPAMAATSFILMTTFPNKELADESQTLKEANLLNAVIVQRLT
notes: P47 (adaptor of P97/VCP), human, full length; Cloned into pRSF-32 M or pET-28a; source: E. coli BL21 (DE3), purified (Ni-NTA, size exclusion chromatography)
Regarding B3, the binding result in test [3] and in test [4] was “binds” each time.

B4: GST-VCPIP1 F3 fragment (IDR2-UBL-UFD2) (domain or fragment, human, UniProt Q96JH7 680-1000, looked up)
chain: QGQESESQLPTKIILTGQKTKTLHKEELNMSKTERTIQQNITEQASVMQKRKTEKLKQEQKGQPRTVSPSTIRDGPSSAPATPTKAPYSPTTSKEKKIRITTNDGRQSMVTLKSSTTFFELQESIAREFNIPPYLQCIRYGFPPKELMPPQAGMEKEPVPLQHGDRITIEILKSKAEGGQSAAAHSAHTVKQEDIAVTGKLSSKELQEQAEKEMYSLCLLATLMGEDVWSYAKGLPHMFQQGGVFYSIMKKTMGMADGKHCTFPHLPGKTFVYNASEDRLELCVDAAGHFPIGPDVEDLVKEAVSQVRAEATTRSRESSPS
notes: VCPIP1, human, residues 680-1000; pGEX-6P-1 vector; source: E. coli BL21 (DE3), purified (glutathione Sepharose 4B, size exclusion chromatography); not shown: GST, N-terminal, kept
As for B4, the binding result in test [2] is listed as “binds”.
